The labels stand for the following.
B1: hu CD45 HC2 + LC1 (antibody, V domains shown)
VH: EVQLLESGGGLVQPGGSLRLSCAASGFDFSRYWMSWVRQAPGKGLEWVSEINPTSSTINYADSVKGRFTISRDNSKNTLYLQMNSLRAEDTAVYYCARGNYYRYGDAMDYWGQGTMVTVSS
VL: DIVMTQSPDSLAVSLGERATINCKSSKSVSTSGYSYLHWYQQKPGQPPKLLIYLASNLESGVPDRFSGSGSGTDFTLTISSLQAEDVAVYYCQHSRELPFTFGQGTKLEIK
B2: hu CD45 HC2 + LC3 (antibody, V domains shown)
VH: B1 VH
VL: EIVLTQSPATLSLSPGERATLSCRASKSVSTSGYSYLHWYQQKPGQAPRLLIYLASNLATGIPARFSGSGSGTDFTLTISSLEPEDFAVYYCQHSRELPFTFGQGTKLEIK
B3: hu CD45 HC4 + LC4 (antibody, V domains shown)
VH: B1 VH with L5V, Q13K, S75A, T78S
VL: DIQMTQSPSSLSASVGDRVTITCRASKSVSTSGYSYLHWYQQKPGKAPKLLIYLASNLQSGVPSRFSGSGSGTDFTLTISSLQPEDFATYYCQHSRELPFTFGQGTKLEIK
B4: hu CD45 HC3 + LC1 (antibody, V domains shown)
VH: B1 VH with L5V, S49A, Y60F, A61V, S75A, T78S
VL: B1 VL
B5: hu CD45 HC2 + LC4 (antibody, V domains shown)
VH: B1 VH
VL: B3 VL
B6: hu CD45 HC4 + LC1 (antibody, V domains shown)
VH: B1 VH with L5V, Q13K, S75A, T78S
VL: B1 VL
B7: hu CD45 HC3 + LC4 (antibody, V domains shown)
VH: B1 VH with L5V, S49A, Y60F, A61V, S75A, T78S
VL: B3 VL
B8: hu CD45 HC4 + LC3 (antibody, V domains shown)
VH: B1 VH with L5V, Q13K, S75A, T78S
VL: B2 VL

Where a chain is given by its changes, count along the chain named. Bounds are passed on as bounds.

In the test the target is rhCD45 His tag (human) (UniProt P08575). The test is described as follows: BLI (Octet HTX), compared with the parental antibody. (Biolayer interferometry detects binding as a change in optical thickness at a sensor tip.)
UniProt P08575, sequence (P08575 26-577): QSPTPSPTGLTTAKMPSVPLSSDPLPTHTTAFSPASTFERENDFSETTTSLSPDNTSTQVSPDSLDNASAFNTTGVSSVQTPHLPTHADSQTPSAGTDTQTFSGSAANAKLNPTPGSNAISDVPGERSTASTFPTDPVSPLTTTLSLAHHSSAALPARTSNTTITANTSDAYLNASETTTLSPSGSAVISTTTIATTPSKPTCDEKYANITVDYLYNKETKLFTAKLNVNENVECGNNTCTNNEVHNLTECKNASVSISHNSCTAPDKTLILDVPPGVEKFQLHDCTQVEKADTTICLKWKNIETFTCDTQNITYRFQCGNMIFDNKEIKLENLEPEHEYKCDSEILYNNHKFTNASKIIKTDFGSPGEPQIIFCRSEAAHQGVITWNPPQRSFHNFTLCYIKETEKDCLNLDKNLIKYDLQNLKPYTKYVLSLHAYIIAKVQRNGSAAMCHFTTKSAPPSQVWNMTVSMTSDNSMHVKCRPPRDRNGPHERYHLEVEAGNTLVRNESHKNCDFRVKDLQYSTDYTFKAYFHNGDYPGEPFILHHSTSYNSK
For the molecule B1, the fold change in KD relative to the parental antibody is less than 10 fold. Consider B2, for which the fold change in KD relative to the parental antibody was less than 10 fold.

For the molecule B3, the fold change in KD relative to the parental antibody was less than 10 fold. In the case of B4, the fold change in KD relative to the parental antibody was less than 10 fold.

On to B5, for which the fold change in KD relative to the parental antibody was less than 10 fold.

Turning to B6, the fold change in KD relative to the parental antibody was less than 10 fold.

For the molecule B7, the fold change in KD relative to the parental antibody was less than 10 fold. As for B8, the figure is less than 10 fold.

For the origin of these results see patent US20240301081A1.
